This passage reports K1/2: Lis1 concentration for half-maximal reduction of single-molecule GST-dynein (331 kDa) velocity and K1/2: Lis1 concentration for half-maximal velocity reduction (experiment with the AAA4 mutants) results from article PMC3438448.

Experiment [1] concerns the target GST-dynein_(331 kDa) (S. cerevisiae) (UniProt P36022).
Experiment [2] shares this target. The source holds these as a separate data set.

Chain of GST-dynein_(331 kDa) (S. cerevisiae) (P36022 whole entry): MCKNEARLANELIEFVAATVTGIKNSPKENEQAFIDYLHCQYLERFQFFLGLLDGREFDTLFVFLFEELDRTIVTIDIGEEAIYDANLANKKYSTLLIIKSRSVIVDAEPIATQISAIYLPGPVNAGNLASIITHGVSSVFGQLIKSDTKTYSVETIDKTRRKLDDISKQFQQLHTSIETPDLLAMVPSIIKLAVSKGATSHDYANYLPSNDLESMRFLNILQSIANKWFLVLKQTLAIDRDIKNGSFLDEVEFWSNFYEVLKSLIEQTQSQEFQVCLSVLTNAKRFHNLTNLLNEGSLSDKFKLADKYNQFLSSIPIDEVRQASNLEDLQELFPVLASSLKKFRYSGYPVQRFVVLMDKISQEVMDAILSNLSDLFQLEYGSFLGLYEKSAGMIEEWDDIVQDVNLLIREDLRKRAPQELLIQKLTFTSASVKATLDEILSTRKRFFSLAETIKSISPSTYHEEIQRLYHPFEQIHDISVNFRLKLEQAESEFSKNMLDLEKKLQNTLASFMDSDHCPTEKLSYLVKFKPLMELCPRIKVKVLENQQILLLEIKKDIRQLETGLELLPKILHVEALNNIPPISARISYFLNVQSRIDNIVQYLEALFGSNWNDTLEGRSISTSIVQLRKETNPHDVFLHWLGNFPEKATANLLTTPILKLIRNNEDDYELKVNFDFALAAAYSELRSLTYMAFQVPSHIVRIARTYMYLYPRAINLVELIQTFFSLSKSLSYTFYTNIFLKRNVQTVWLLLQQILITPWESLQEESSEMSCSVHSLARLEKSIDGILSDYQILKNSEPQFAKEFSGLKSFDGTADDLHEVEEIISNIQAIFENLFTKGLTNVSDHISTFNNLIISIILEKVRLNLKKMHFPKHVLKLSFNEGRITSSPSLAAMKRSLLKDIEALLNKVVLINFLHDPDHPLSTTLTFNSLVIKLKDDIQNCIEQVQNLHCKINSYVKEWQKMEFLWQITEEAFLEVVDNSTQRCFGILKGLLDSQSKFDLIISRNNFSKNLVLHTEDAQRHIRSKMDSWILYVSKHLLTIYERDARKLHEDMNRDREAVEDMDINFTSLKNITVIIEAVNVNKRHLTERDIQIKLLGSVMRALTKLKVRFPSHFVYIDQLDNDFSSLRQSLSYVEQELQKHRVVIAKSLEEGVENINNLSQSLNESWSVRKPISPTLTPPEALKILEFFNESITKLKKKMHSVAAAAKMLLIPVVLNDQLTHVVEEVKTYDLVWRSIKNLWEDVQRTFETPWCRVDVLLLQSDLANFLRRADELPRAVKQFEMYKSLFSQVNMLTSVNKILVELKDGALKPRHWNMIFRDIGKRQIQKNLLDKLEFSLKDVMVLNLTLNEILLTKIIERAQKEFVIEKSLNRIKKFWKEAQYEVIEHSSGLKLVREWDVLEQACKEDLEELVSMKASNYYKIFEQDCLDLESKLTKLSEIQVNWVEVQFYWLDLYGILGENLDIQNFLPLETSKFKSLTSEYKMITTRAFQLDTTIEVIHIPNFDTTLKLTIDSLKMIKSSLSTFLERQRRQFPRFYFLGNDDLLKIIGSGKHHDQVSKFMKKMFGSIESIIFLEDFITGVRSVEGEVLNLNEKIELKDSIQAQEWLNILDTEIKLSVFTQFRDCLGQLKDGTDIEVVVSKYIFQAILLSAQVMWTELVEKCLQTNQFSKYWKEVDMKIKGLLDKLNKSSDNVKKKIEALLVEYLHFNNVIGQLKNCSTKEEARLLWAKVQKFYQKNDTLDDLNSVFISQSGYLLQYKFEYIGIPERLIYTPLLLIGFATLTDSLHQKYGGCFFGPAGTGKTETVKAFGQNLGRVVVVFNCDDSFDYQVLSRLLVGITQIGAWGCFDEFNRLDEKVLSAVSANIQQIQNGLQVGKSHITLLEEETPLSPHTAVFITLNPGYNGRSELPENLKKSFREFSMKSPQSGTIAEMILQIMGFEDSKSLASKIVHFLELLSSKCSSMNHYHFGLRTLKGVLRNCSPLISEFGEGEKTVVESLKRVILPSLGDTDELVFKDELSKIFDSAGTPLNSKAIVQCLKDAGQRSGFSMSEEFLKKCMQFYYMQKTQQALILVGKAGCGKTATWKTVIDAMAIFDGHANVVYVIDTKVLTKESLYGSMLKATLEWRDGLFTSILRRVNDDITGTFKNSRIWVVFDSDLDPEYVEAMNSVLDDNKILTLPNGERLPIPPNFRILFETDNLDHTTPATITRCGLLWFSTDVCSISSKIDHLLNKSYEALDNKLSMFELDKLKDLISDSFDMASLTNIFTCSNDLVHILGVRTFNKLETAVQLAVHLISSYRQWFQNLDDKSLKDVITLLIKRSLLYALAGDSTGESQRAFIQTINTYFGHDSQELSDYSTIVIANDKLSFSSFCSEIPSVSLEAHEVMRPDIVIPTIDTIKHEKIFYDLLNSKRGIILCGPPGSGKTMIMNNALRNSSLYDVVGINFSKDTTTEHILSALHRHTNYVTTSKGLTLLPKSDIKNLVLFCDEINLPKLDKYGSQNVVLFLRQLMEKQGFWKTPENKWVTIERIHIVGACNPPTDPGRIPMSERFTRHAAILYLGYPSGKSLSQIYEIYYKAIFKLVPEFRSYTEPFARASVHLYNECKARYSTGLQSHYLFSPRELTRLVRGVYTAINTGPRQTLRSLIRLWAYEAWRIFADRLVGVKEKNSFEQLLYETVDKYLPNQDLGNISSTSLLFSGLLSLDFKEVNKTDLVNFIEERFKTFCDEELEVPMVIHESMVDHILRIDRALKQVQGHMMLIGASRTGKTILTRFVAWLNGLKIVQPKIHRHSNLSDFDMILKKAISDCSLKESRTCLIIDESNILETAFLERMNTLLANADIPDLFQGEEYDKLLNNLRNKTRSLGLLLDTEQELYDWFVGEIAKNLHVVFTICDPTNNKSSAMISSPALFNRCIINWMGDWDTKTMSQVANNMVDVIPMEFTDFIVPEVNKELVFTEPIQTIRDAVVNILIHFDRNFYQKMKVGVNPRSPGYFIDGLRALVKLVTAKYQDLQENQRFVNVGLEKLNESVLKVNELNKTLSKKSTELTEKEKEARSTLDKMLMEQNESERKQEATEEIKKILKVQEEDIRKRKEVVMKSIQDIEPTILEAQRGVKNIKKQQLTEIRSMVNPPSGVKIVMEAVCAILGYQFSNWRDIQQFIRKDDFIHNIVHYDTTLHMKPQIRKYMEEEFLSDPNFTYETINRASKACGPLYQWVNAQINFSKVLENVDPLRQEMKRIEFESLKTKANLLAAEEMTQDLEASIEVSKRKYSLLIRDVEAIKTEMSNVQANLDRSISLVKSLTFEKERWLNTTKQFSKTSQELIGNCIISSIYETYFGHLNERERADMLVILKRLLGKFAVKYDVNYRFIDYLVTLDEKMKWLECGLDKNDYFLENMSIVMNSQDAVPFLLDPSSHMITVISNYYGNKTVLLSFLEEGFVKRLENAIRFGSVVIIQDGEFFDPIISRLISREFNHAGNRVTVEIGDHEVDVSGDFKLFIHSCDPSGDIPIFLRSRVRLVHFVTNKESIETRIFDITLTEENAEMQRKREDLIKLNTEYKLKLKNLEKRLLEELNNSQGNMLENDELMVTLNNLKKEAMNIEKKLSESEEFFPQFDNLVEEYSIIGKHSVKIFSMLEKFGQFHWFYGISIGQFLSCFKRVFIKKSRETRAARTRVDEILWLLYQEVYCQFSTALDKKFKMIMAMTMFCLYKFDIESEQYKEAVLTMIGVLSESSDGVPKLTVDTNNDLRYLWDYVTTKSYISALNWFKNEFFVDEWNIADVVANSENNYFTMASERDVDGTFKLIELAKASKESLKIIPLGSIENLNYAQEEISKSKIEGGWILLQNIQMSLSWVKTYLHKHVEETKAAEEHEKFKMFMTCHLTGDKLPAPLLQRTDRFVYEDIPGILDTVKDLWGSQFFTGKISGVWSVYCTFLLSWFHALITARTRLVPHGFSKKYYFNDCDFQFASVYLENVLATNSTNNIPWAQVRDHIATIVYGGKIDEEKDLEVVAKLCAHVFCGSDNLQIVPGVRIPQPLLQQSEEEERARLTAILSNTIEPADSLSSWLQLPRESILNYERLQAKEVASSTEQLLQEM

B1: Lis1 (S. cerevisiae Pac1) (natural protein)
chain: MTNWQQQLPLTDTQKNELDKSVLRYLNWNYKQTVRHEHAQDYESVRHAIVTLSGFLLQESVDRQEFISNNDTSNESMVDIDELLLPKKWNSIVRLQKKIIELEQNTETLVSQIKDLNTQVSELAQFKPTTSNGTSAHNVLKWIPRNLPSCLINVESSVTSVKLHPNLPIVFVATDHGKLYAFDLFNYTIPLASLQSHTKAITSMDVLFTNYTNSSKKNYLVIVTASKDLQIHVFKWVSEECKFQQIRSLLGHEHIVSAVKIWQKNNDVHIASCSRDQTVKIWDFHNGWSLKTFQPHSQWVRSIDVLGDYIISGSHDTTLRLTHWPSGNGLSVGTGHEFPIEKVKFIHFIEDSPEIRFRTPSTDRYKNWGMQYCVSASRDRTIKIWEIPLPTLMAHRAPIPNPTDSNFRCVLTLKGHLSWVRDISIRGQYLFSCADDKSVRCWDLNTGQCLHVWEKLHTGFVNCLDLDVDFDSNVTPRQMMVTGGLDCKSNVFMR
As for B1, the K1/2: Lis1 concentration for half-maximal reduction of single-molecule GST-dynein (331 kDa) velocity in experiment [1] is 15.3 nM. The same molecule returned a K1/2: Lis1 concentration for half-maximal velocity reduction (experiment with the AAA4 mutants) in experiment [2] of 15.7 nM.
